The text below walks through data of patent US20220016257A1 (Daiichi Sankyo, published 2022).

The target in assay [1] is T1, human CDH6 (full-length, on cells) (human, UniProt P55285 54-790).
T1 construct: also called hCDH6; full-length hCDH6
T1 sequence: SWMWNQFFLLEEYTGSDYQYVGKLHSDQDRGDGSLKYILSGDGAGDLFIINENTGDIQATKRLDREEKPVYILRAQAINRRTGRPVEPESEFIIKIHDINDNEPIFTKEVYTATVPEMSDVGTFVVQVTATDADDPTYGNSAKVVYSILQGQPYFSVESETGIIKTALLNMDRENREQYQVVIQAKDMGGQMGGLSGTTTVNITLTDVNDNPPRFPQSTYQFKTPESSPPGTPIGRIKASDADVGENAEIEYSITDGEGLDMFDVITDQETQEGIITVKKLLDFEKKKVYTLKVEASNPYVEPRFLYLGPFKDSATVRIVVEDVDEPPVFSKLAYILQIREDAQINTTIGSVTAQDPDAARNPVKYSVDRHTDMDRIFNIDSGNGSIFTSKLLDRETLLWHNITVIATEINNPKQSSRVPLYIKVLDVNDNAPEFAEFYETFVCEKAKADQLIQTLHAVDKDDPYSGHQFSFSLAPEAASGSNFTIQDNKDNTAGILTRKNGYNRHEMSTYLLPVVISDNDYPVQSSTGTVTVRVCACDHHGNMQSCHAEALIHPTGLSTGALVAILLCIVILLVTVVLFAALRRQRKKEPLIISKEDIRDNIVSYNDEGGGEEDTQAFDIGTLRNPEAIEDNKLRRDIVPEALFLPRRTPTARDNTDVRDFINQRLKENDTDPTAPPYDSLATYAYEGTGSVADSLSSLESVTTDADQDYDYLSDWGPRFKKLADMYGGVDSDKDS
In words: competition flow cytometry on 786-O/hCDH6 cells, unlabeled antibody varied, competitor Alexa488-labeled NOV0712 at 5 nM [upper panel]. The method, then: The cell suspension of the 786-O/hCDH6 stably expressing cell line produced in 6)-2-2-1 was centrifuged, and the supernatant was then removed. Thereafter, the cells were suspended by the addition of labeled NOV0712 or labeled H01L02 (final concentration: 5 nM) and, further, the addition of each of the 4 humanized hG019 antibodies (clone Nos: H01L02, H02L02, H02L03 and H04L02), which had been prepared in Example 5)-5-3, or the anti-CDH6 antibody NOV0712, which had been prepared in Reference Example 1, or human IgG1 (Calbiochem) as a negative control (final concentration: as shown in the abscissa of FIG. 7). The cells were left standing at 4° C. for 1 hour. Thereafter, the cells were washed twice with PBS supplemented with 5% FBS, followed by detection using a flow cytometer (Canto II; BD Biosciences). The data was analyzed using FlowJo (TreeStar, Inc.). The abscissa depicts the final concentration of the added unlabeled antibody, and the ordinate depicts the amount of the antibody bound based on mean fluorescence intensity. When unlabeled NOV0712 is added to cells supplemented with labeled NOV0712, the amount of the labeled antibody bound is decreased by replacement with the unlabeled antibody in an addition concentration-dependent manner because they compete with each other for binding to the same epitope. […]

For assay [2], the target named is T2, EC5-deleted human CDH6 (EC5 deletion mutant, on cells) (human, UniProt P55285 54-790).
T2 construct: Full-length human CDH6 lacking EC5; Cloned in p3xFLAG-CMV-9; also called EC5-deleted hCDH6
T2 sequence: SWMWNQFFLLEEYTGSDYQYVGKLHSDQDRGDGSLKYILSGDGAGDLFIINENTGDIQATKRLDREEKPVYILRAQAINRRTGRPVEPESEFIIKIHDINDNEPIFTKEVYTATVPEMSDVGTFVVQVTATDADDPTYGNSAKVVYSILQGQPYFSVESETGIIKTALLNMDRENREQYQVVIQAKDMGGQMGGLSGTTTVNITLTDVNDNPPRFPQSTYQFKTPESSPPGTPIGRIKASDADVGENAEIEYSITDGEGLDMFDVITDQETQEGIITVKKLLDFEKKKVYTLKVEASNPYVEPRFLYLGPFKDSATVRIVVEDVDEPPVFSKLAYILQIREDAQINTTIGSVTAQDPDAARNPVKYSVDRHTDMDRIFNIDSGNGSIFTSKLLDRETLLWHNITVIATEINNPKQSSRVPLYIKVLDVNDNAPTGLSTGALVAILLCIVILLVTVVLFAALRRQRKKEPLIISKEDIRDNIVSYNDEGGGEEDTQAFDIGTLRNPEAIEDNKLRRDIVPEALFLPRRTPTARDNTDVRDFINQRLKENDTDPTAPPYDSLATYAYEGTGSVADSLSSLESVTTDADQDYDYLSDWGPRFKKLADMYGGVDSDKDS
Put plainly: flow cytometry, 293α cells transiently expressing EC5-deleted hCDH6 (open) against untransfected cells (shaded), APC anti-human IgG F(ab')2. On the procedure: Thereafter, the cells were suspended by the addition of each of the 4 humanized hG019 antibodies (clone Nos: H01L02, H02L02, H02L03 and H04L02), which had been prepared in Example 5)-5-3, or the anti-CDH6 antibody NOV0712, which had been prepared in Reference Example 1, or human IgG1 (Calbiochem) as a negative control. The cells were left standing at 4° C. for 1 hour. The cells were washed twice with PBS supplemented with 5% FBS, and then suspended by the addition of APC-anti-human IgG goat F(ab′)2 (Jackson ImmunoResearch Laboratories, Inc.) that had been 500-fold diluted with PBS supplemented with 5% FBS. The cells were left standing at 4° C. for 1 hour. The cells were washed twice with PBS supplemented with 5% FBS, followed by detection using a flow cytometer (Canto II; BD Biosciences). The data was analyzed using FlowJo (TreeStar, Inc.). In the histograms of FIGS. 5-1 to 5-6, the abscissa depicts APC fluorescence intensity indicating the amount of the antibody bound, and the ordinate depicts cell count. […] Fluorescence intensity is enhanced when the antibody binds to full-length hCDH6 or each EC domain deletion mutant on the cell surface. The human IgG1 control binds to none of the transfected cells.
On the technique in general: A flow cytometer gives signals particle by particle.

B1: anti-CDH6 antibody NOV0712 (antibody, V domains shown)
VH: QVQLLESGGGLVQPGGSLRLSCAASGFTFSSHGMHWVRQAPGKGLEWVSVISGSGSNTGYADSVKGRFTISRDNSKNTLYLQMNSLRAEDTAVYYCARQWGSYAFDSWGQGTLVTVSS
VL: DIQMTQSPSSLSASVGDRVTITCRASQSISSYLNWYQQKPGKAPKLLIYAVSTLQSGVPSRFSGSGSGTDFTLTISSLQPEDFATYYCQQSGTFPPTTFGQGTKVEIKR
With B1, the “IC50 (read off the curve)” value in assay [1] was roughly 4 nM. The binding result in assay [2] is listed as “no binding (tested: not given)”.
